According to US20130071405A1 (Eli Lilly, published 2013):

What was measured:
Rat PCSK9 = Rat PCSK9 (rat, UniProt P59996 31-691, limits assumed); experiment: SPR, 25 C, n=2
Human PCSK9 = Human PCSK9 (human, UniProt Q8NBP7 31-692); experiment: SPR, 37 C, physiological buffer, n=6, Avg ± SD
Mouse PCSK9 = Mouse PCSK9 (mouse, UniProt Q80W65 35-694, limits assumed); experiment: SPR, 25 C, n=3
[1] = target: T1, hPCSK9 163-174 synthetic peptide (human); experiment: binding kinetics to synthetic peptide (method not named in Example 3)
T1 peptide: PPRYRADEYQPP

[2] = target: T2, hPCSK9 166-181 synthetic peptide (human); experiment: as above
T2 peptide: YRADEYQPPDGGSLVE

[3] = target: T3, hPCSK9 160-181 synthetic peptide (human); experiment: as above
T3 construct: Numbered on complete human PCSK9 including the twenty-eight amino acid signal peptide
T3 peptide: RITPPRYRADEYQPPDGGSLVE

mature hPCSK9 C-term His = target: T4, mature hPCSK9 C-term His (human, UniProt Q8NBP7 29-692); experiment: binding kinetics (method not named in Example 3)
T4 construct: also called intact human PCSK9; intact PCSK9

[4] = target: Cyno PCSK9 (cynomolgus monkey); experiment: SPR, 37 C, physiological buffer, n=4, Avg ± SD
[5] = target: T5, Recombinant full length PCSK9, C-terminal HIS-tagged (HEK 293 stable cell line) (human, UniProt Q8NBP7 31-692); experiment: AlphaLISA, inhibition of PCSK9 (1 nM) binding to FLAG-tagged LDLR extracellular domain (1 nM)
T5 construct: also called C-terminal HIS-tagged recombinant human PCSK9; not shown: C-terminal HIS tag

[6] = target: T3, hPCSK9 160-181 synthetic peptide; experiment: binding kinetics to synthetic peptide, reference intact human PCSK9

T4 sequence (Q8NBP7 other isoform, or with tags, fused parts or gaps limits assumed): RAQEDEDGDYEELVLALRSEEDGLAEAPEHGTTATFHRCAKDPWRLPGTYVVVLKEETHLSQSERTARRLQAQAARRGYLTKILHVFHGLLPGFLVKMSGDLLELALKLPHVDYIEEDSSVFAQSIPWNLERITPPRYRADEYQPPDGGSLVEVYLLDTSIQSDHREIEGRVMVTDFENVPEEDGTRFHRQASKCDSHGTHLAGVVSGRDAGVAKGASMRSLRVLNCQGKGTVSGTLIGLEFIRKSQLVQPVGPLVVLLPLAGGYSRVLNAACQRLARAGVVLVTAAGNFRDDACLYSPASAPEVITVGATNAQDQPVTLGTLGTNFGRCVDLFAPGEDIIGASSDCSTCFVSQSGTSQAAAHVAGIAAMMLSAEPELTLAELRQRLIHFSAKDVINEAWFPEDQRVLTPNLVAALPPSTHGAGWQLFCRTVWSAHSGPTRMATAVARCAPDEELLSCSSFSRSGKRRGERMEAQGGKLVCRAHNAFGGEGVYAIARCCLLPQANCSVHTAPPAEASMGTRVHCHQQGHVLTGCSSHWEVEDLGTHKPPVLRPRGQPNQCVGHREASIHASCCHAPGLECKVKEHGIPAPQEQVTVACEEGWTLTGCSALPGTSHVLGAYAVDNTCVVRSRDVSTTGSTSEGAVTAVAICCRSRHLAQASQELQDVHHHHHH
Chain of Human PCSK9 (Q8NBP7 31-692 limits assumed): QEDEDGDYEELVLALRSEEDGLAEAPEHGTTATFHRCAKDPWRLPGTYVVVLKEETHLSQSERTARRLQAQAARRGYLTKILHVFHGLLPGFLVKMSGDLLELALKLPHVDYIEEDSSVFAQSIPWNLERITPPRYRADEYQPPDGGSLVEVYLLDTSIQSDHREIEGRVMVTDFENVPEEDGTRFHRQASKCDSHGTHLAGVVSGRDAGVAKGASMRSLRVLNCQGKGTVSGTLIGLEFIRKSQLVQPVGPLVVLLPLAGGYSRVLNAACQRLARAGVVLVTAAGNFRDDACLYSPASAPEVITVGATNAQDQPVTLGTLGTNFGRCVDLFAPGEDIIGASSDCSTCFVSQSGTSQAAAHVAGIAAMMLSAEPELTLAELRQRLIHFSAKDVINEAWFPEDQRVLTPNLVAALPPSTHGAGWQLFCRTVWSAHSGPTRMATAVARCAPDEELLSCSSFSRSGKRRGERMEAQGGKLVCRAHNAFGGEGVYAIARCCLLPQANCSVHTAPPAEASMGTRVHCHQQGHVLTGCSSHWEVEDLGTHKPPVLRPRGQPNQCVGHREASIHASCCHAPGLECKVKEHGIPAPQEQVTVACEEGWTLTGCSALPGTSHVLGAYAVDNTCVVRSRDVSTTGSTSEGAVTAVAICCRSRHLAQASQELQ
Chain of Mouse PCSK9 (Q80W65 35-694 limits assumed): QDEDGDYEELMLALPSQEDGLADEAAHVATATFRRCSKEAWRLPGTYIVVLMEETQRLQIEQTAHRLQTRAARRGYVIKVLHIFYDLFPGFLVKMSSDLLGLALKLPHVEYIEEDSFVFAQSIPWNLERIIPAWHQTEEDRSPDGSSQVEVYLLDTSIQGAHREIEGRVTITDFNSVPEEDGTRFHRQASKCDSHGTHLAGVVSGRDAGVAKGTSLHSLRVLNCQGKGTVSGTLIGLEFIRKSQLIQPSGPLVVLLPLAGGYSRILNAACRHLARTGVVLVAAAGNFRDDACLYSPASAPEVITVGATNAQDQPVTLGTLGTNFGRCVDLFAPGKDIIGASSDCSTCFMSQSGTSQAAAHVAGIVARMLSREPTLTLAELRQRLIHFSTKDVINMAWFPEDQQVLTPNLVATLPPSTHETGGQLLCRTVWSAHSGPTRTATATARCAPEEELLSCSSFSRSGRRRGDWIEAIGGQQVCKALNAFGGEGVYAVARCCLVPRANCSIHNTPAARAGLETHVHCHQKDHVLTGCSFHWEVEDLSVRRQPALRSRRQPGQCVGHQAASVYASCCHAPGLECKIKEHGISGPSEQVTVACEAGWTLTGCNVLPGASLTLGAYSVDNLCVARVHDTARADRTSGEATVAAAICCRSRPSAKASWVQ
Chain of Rat PCSK9 (P59996 31-691 limits assumed): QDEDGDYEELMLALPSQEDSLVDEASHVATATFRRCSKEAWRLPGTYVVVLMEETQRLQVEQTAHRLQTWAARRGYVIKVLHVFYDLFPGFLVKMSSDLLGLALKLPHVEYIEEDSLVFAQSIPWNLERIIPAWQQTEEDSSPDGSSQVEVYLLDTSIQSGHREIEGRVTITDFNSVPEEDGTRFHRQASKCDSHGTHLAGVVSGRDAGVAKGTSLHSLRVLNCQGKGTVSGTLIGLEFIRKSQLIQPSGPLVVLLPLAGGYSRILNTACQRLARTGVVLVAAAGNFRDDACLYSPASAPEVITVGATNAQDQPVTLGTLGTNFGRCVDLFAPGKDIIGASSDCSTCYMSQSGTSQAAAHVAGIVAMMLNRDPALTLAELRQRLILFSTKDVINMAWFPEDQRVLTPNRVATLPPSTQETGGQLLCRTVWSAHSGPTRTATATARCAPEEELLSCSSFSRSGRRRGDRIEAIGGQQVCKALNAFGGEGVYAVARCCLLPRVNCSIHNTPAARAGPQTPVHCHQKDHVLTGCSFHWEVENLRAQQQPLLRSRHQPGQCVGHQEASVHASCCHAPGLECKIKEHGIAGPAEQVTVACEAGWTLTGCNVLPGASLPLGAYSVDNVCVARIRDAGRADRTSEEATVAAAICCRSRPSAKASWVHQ
T5 sequence (Q8NBP7 31-692 limits assumed): as the sequence (Q8NBP7 31-692 limits assumed) above

binding result (Rat PCSK9): no binding
Kd (Human PCSK9): 11 nM
koff (Human PCSK9): 0.0012 s⁻¹
kon (Human PCSK9): 120000 M⁻¹ s⁻¹
binding result (Mouse PCSK9): no binding
Kd [1]: 3 nM
koff [1]: 0.00831 s⁻¹
kon [1]: 2.75e+06 M⁻¹ s⁻¹
Kd [2]: 34 nM
koff [2]: 0.156 s⁻¹
kon [2]: 4.58e+06 M⁻¹ s⁻¹
Kd [3]: 0.17 nM
koff [3]: 0.000242 s⁻¹
kon [3]: 1.45e+06 M⁻¹ s⁻¹
Kd (mature hPCSK9 C-term His): 1.8 nM
koff (mature hPCSK9 C-term His): 0.00015 s⁻¹
kon (mature hPCSK9 C-term His): 86700 M⁻¹ s⁻¹
Kd [4]: 25 nM
koff [4]: 0.0025 s⁻¹
kon [4]: 110000 M⁻¹ s⁻¹
IC50 [5]: ~0.09 nM
koff fold difference against intact PCSK9 [6]: ≤ 2 fold
B1: engineered PCSK9 antibody of Example 1 (antibody, human IgG4 S228P, kappa, F234A L235A, V domains shown)
VH: EVQLVESGGGLVKPGGSLRLSCAASGFPFSKLGMVWVRQAPGKGLEWVSTISSGGGYTYYPDSVKGRFTISRDNAKNSLYLQMNSLRAEDTAVYYCAREGISFQGGTYTYVMDYWGQGTLVTVSS
VL: DIVMTQSPLSLPVTPGEPASISCRSSKSLLHRNGITYSYWYLQKPGQSPQLLIYQLSNLASGVPDRFSGSGSGTDFTLKISRVEAEDVGVYYCYQNLELPLTFGQGTKVEIKR
notes: the controls used are IgG4; also called test PCSK9 antibody
